We go through 1 substance from IntAct's records for PubMed 12620186.

For the assay, the target named is wipf1_human WIPF1 (UniProt O43516).
wipf1_human WIPF1, sequence (O43516 whole entry): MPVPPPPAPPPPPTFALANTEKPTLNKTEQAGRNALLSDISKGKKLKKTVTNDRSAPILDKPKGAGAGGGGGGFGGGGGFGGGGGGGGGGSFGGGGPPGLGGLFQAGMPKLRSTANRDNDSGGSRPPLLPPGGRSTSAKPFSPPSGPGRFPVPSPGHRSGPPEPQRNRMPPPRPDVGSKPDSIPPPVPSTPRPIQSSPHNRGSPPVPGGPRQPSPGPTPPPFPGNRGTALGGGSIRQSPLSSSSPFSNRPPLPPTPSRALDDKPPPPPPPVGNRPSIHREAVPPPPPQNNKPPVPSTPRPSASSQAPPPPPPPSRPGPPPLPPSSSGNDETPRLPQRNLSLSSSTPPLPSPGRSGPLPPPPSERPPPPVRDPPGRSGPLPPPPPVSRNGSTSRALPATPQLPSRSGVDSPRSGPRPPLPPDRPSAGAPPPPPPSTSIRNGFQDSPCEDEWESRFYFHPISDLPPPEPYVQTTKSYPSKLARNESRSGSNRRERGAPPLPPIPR

Src substrate cortactin (Mus musculus), Q60598 W526K, sequence (Q60598 whole entry W526K): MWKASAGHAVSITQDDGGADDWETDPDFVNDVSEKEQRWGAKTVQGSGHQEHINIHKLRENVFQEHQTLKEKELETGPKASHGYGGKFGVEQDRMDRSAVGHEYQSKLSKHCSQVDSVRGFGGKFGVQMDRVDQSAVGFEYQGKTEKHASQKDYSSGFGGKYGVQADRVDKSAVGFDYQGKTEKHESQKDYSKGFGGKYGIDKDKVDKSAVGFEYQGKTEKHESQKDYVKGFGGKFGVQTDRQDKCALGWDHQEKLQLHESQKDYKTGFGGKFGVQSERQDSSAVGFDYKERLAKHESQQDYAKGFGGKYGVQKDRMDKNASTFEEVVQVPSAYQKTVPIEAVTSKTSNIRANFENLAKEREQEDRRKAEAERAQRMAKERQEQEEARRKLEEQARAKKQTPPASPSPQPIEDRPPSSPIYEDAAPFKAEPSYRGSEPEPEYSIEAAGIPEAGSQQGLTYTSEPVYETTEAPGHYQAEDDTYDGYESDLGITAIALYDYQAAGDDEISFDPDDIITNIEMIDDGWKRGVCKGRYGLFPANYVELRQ

Regarding “Src substrate cortactin (Mus musculus), Q60598 W526K”, the “effect of a mutation on the interaction” value is listed as “disrupting interaction”.
